Measured values published in patent US20190309035A1, “PEPTIDE OR COLLECTION OF PEPTIDES DERIVED FROM AMYLOID PRECURSOR PROTEIN” (Ludwig-Maximilians-Universität München, priority 2015, published 2019).
Entries after “also recorded” stand apart in the source; their conditions may differ. Blank lines part the entries; values can stand above or below the molecule they belong to.

Assays:
[1] = biological target: T1, BACE1 (Cricetulus griseus, UniProt G3IAK4); assay: BACE1 inhibitor treatment of CHO cells expressing human APPV717F, Western blot of supernatants; format: cell-based; settings: 2 μM
T1 construct: endogenous in cells; host or cells: CHO cells overexpressing human APPV717F (CHO / 7PA2)
T1 sequence (G3IAK4 22-501): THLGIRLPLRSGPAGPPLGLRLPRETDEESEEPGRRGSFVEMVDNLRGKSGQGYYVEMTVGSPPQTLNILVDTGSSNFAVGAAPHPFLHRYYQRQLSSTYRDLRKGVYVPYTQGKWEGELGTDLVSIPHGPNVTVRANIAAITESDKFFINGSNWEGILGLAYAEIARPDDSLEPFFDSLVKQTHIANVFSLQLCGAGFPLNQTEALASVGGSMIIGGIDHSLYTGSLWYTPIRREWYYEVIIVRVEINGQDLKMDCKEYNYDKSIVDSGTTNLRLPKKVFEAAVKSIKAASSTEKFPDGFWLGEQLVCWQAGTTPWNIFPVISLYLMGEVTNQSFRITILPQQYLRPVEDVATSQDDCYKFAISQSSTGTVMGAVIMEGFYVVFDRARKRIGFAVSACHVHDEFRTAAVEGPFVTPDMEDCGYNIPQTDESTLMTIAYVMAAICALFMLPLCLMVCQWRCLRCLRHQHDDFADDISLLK
Procedure: a) Supernatants of CHO cells expressing human APPV717F without or with BACE1 inhibition (BI; 2 μM Merck IV) were compared to synthetic peptides of Aη-β and Aη-α. Increased Aη-α peptide levels were observed upon BACE1 inhibitor treatment with 2D8 and 2E9 antibodies. The fragment with the lowest molecular weight, co-migrating with the synthetic peptide Aη-β, disappeared upon BACE1 inhibition b) After overnight incubation of DIV 16 primary hippocampal neurons without or with the BACE1 inhibitor (BI; 2 μM Merck IV), supernatants were analyzed by Western blotting. […] Total levels of secreted APP (22C11) were unchanged while sAPP-α levels increased. […] Inhibitor treated mice and vehicle treated controls were sacrificed and analyzed after 5, 8 or 24 h. […]
CHO and 7PA2^44 cells were grown in DMEM/F12 (Thermo Scientific) supplemented with 10% fetal calf serum (FCS, Thermo Scientific) plus Penicillin/Streptomycin and NEAA (Non-essential amino acids, PAA) in a humid incubator with 5% CO2 at a temperature of 37° C. […] The protein concentration of lysates was determined using the Uptima BC Assay Protein Quantitation kit (Interchim).
Proteins were separated under denaturing conditions using discontinuous SDS-PAGE. […] CTFs, Aη and Aβ were detected after transfer on Nitrocellulose membranes (Protran BA85; GE Hlealthcare), while other proteins were blotted on PVDF (Immobilon-P, Merck Millipore). […]

[2] = test system: hippocampal LTP; assay: Long-term potentiation (LTP) recordings in acute hippocampal slices (fEPSP at the CA3-CA1 synapse); format: cell-based, mouse; settings: for fEPSP baseline responses after incubation with SEC fractions: 1/15 dilution, 15 min bath application before LTP induction
Procedure: a) Aη-α and Aη-β peptides were expressed in CHO cells and collected in OPTIMEM medium. […] Higher molecular weight bands are most likely due to posttranslational modification by glycosylation. b-e) SEC fractions enriched for Aη were diluted (1:15) in ACSF for the treatment of hippocampal slices and LTP measurements. Aη-α, Aη-β and control SEC fractions (obtained from CHO cells transfected with the empty vector) were perfused over mouse hippocampal slices for 15 min after obtaining a stable baseline of a fEPSP at the CA3-CA1 synapse.
OPTIMEM was used to collect CHO cell supernatants. SEC was performed with concentrated CHO supernatants using a FPLC (ÄKTApurifier) equipped with a Superdex75 column (GE Healthcare). 1 ml samples were collected with a mobile phase flow rate set at 0.5 ml/min in standard ACSF. Acute hippocampal slices were prepared from Swiss mice (PND20-30) and kept in ACSF^42. Extracellular field excitatory post-synaptic potentials (fEPSPs) were obtained from CA1 pyramidal neurons. After 15 minutes of bath application of SEC fractions^43, LTP was induced by high frequency stimulation (2 pulses of 100 Hz for 1 second with a 20 second inter-pulse interval). LTP was recorded for 60 minutes and statistical analysis was performed on the last 15 minutes of recording compared to baseline fEPSP values.
Transverse hippocampal slices ([…]) were prepared from postnatal day 20-30 Swiss mice following standard procedures^56. Slices were cut in ice-cold oxygenated (95% O2/5% CO2) solution containing 206 mM sucrose, 2.8 mM KCl, 1.25 mM NaH2PO4, 2 mM MgSO4, 1 mM MgCl2, 1 mM CaCl2, 26 mM NaHCO3, 0.4 mM sodium ascorbate, 10 mM glucose (pH 7.4). For recovery (1 h), slices were incubated at 27° C. in oxygenated standard artificial cerebrospinal fluid (ACSF) containing: 124 mM NaCl, 2.8 mM KCl, 1.25 mM NaH2PO4, 2 mM MgSO4, 3.6 mM CaCl2, 26 mM NaHCO3, 0.4 mM sodium ascorbate, 10 mM glucose (pH 7.4)^57. Slices were inspected in a chamber on an upright microscope (Slicescope, Scientifica Ltd) with IR-DIC illumination and were perfused with the oxygenated ACSF at 27±1° C. Field excitatory post-synaptic potentials (fEPSPs) were recorded in the stratum radiatum of the CA1 region using a glass electrode (filled with 1 M NaCl/10 mM HEPES, pH 7.4) and the stimuli (30% of maximal fEPSP) were delivered to the Schaeffer Collateral pathway by a monopolar glass electrode (filled with ACSF). Electrodes were specifically placed just below the surface of the slice to maximize the exposure to circulating peptides. A minimum of 15 minutes stable baseline was first obtained in standard ACSF followed by another 15 minutes of bath application of ACSF containing SEC fractions (CHO, Aη-α or Aη-β; 1/15 dilution, interleaved recordings) using re-circulation with a peristaltic pump at 2.5-3 ml min^−1 while being continuously aerated with 95% oxygen. […] In the continuous presence of the ACSF/SEC solution, LTP was then induced using a high frequency stimulation (HSF) protocol with 2 pulses of 100 Hz for 1 sec with 20 see interval between pulses, and recorded for one hour. Control recordings (no application of SEC fractions) were obtained in an interleaved fashion where ACSF was re-circulated using an identical procedure. For LTP analysis, the first third of the fEPSP slope was calculated in baseline condition (15 minutes prior to induction of LTP and for 60 minutes post-induction). […]

[3] = SEC fractions from conditioned media of CHO cells, diluted 1:15 in ACSF, perfused 15 min before HFS, LTP 45-60 min post-HFS

lowest molecular weight fragment co-migrating with synthetic Aη-β [1]: disappeared | Aη-α peptide levels in supernatant ([1]; 2D8 and 2E9 antibodies): Increased
Molecule: C[C@@H](NC(=O)c1cc(C(=O)N[C@@H](Cc2ccccc2)[C@H](O)CNC2CC2)cc(N(C)S(C)(=O)=O)c1)c1ccccc1 [Merck IV]

Molecule: AβS26C dimers: AβS26C dimers from JPT Peptide Technologies, Germany [reference compound]
effect on LTP ([2]; 100 nM final in 25 ml re-circulating ACSF, vs interleaved ACSF recordings, 45-60 min post-LTP induction): reduced

B1: Aη-β: Aη-β-peptide (residues 505-596 of P05067-4), 92 aa, expressed in CHO cells and enriched by SEC (protein, listed as Homo sapiens)
chain: MISEPRISYGNDALMPSLTETKTTVELLPVNGEFSLDDLQPWHSFGADSVPANTENEVEPVDARPAADRGLTTRPGSGLTNIKTEEISEVKM
fEPSP baseline responses after incubation with SEC fractions [2]: No alterations | effect on LTP [2, 3]: had no effect; also recorded: did not significantly inhibit

B2: Aη-α: Aη-α-peptide (residues 505-612 of P05067-4), 108 aa, expressed in CHO cells and enriched by SEC (protein, listed as Homo sapiens)
chain: MISEPRISYGNDALMPSLTETKTTVELLPVNGEFSLDDLQPWHSFGADSVPANTENEVEPVDARPAADRGLTTRPGSGLTNIKTEEISEVKMDAEFRHDSGYEVHHQK
fEPSP baseline responses after incubation with SEC fractions [2]: No alterations | effect on LTP [2, 3]: significantly inhibited
